From the DeepSol protein solubility set

Test: soluble on expression in E. coli; label from the status in PepcDB or PDB records

Soluble on expression in E. coli, not soluble:
MGSDKIHHHHHHMKRIGIIAAWQPELNYLHEEYPSRKVRKIAAWEFHYHSINNLEIISVISGVGKTNCSSCTQLLISEFRPDEIYMTGICGSLSDSIKGGEIVIARQMLQHDVTNAGKGDDVWDLYTGRTSIIDGDNSIFSDFLNFAINTSEHKINNGMFISGDQRIREDVLRSSLSSTHNAIAVDQEIASFSYVSYVNKIPFLCVKSVSDQADNKTIEDQKRFKLLACENSCKLLIEFLLR
MGSDKIHHHHHHMKRLIGCVLLFLGASLYGCGGQGEDPETIVSEKPIEEWDDEEEDGGEWTVPDIDLSNFRHDPTEWGENVTGVKTKLDTKEQVIALTLDACGGPHGSQFDEELLAYLQEKEIPATLFVNERWIDENEDVFLSLANNPLFQIENHGSAHKPLSVNGRNAWNIEGTKSPEEVVNEITNNQQRIYQLTGRSTRLFRSGTAFYDEVAVEIANALGVEVVNYSVLGDAGATFTAEQVKAALLNAEPGAIVLMHMNQPASGTAAGVKAAIPLLIEKGYTFARLDEYDLT
MGSDKIHHHHHHMKRSIEDTPVVFLGAGNLATNLAKALYRKGFRIMQVYSRTEESARTLANEVEAEYITDLKDVSNEARLYIISLKDAAFVELLPQITDGKQHALLVHTAGSIPMNIWEGHAERYGVFYPMQTFSKQREVDFREVPFFIEAKRPEDTELLKAVAGTLSDKVYEADSEQRRSLHLAAVFTCNFTNHMYALAAELLEKYHLPFDVMLPLIDETARKVHELAPRDAQTGPAVRYDENVMNKHLSMLADSQALQEIYKLMSKSIHEHHQL
MGSDKIHHHHHHMKSELFYRKLEKCDLCPRNCGVNRLMGEKGACGVANSPVVSSWGPHFGEERILVGRGGSGTVFFTYCNLKCVYCQNYEISQLGIGKEITVEDLLRIFTELQDMGVENLNLVTPTHQIPFIVDAFERMEKEIPVVYNCGGYESVDTIISLEGFVDIYMPDFKYSDPELGEKLSGVKDYPRFALEALKVMIDQMGEPVIRNGVMKKGVLVRHLVLPGFLEDSFGVIDLLSTLEPKPLVNIMAQFYPAYRAKEYGLDRFITRDEYLKVVEYAKKKKLNLIEVERWLRWL
MGSDKIHHHHHHMKSFDEMTPKEIVQELDKYIVGQYEAKKAVAIAVRNRIRRQKLPEEWRKEVLPKNILMIGPTGVGKTEIARRLAQLSGSPFLKVEATRFTEVGYVGKNVDSMIRDLVEISVNMVKQEKIKEVERQAEELVEERILDALVPESKAMPVVTNPFINLITGGQQQQYTPEDRRRFRAKREEMREKLRKGELEDEEIEIELEETVSPFMGIFGPGMEDLGIEITNMFSGMLPKRKKKRKMKVSEARKVLLPLEAEKLIDMDKVVQEALDRAQNRGIIFIDEIDKIAGKESAVGPDVSRQGVQRDLLPIVEGTTIMTKYGPVRTDFILFIAAGAFHVSRPSDLIPELQGRFPIRVELSPLTEEDFVRILKEPENAIIKQYQALLSTEGVELVFTEDGIREMARIAYQLNQRLENIGARRLYTVAEKVLEEISFEAPDIPEKRVVVDAEYVRRRLEKIVQDEDLSAYIL
MGSDKIHHHHHHMKSKNLSPYIKYIELDRVRVPSFSRYPFHLPAVRNLDTLALHPKVTFLVGENGSGKSTILEAIAVAYGFNAEGGTKNFNFSSRRTHSDLSDYVKVVKGTRTPRNGFFLRAESFYNFASNLDDLDSEMAFGPSLIDSYGGRSLHEQSHGESFFAVFLNRFSGDGVYILDEPEAALSPSRQMSMLSRMHELVGEGAQFIIATHSPIIMAYPDALIYQIADDIEQVGYQETEHYRITRAFLNHPQKMLKLLLE
MGSDKIHHHHHHMKSLLAIYPGSIVSEELCIREGCLCFFDESNQRYISIPKTEISEKEVLVLQSFLTPADEGNQLSMKSPEENKWFSFLFSRGELPAYIKKRTRFVHFHLFGKIERTSFTEAVRHFWPVSFVIVWIHEDRGVIVEQESEAAAEKDELESLAKVLESDFYFSVRFYAGRFYEPDECLRKHYAREQAYFLFAEKRLPQVQSVTFEMIFPFLLLETEKEKLETLLSEEAELLFGSESELRKTIKLFIENNSNVTLTAKKLHLHRNSLQYRIDKFIERSGIDIKSYKGALLAYFICLQNESSE
MGSDKIHHHHHHMKSNVVVKYPVNSELANYAEKFWKKELAIYNLSLILNKMTPFVKRRSESYKSSLSAVKEIFKNVDDFQNFLNSVLRRSLDEYRVFFENYERLFNSFSSKIFSMRTKSRLVVGLGDESVYETSIRLHRNYGVPYIPGSALKGVAKHYAFSILARENGDEILRIYESVKEDLKARIAKRDKIKKNDVPEDYYLTAAVIQELFEKKFDELGAIRNTRVEIGDTVISVGDIVKIFGTQKEEGSVIFFDAFPTPEQLKDKPNLELDIMNPHYQPYYQHGEPPGDWHSPNPIFFLTVPAGVEFTFAVASRDLDDLAEKAEKLLKEALKKFGVGAKTSLGYGRFDARDDR
MGSDKIHHHHHHMKTITTWQNNIQIVKDATNIVEISKGFSPDKKYIVTTIDEEKYLLRIGDIQEYERRKIEFQILNEMVKRNVQAQRPIEIGILEEEGVCYSIFSYLEGEDAKKLLPTYSPKKQYEIGIEAGKDLAKMHTYEAPNDTLPWYERAMKKHQKYVEAYKTCGIKIKNDDKIIKFIDENEMYLQNRPNQFQHDDFHLENIIVRDGKYVGVVDFNGYDWGDPLHDFVKIALFARDISIPYSIGQIEGYFNGRIPEEFWKLYAVYVGMTVFSSVVWTLRAAPHMLDDTLERLTVVLEDHKDFELLKPIWFQPEKIDIKK
MGSDKIHHHHHHMKTKVAAIYGKRDVRLRVFELPEITDNELLVSVISDSVCLSTWKAALLGSEHKRVPDDLENHPVITGHECAGVIVEVGKNLTGKYKKGQRFVLQPAMGLPSGYSAGYSYEYFGGNATYMIIPEIAINLGCVLPYHGSYFAAASLAEPMCCIIGAYHANYHTTQYVYEHRMGVKPGGNIALLACAGPMGIGAIDYAINGGIQPSRVVVVDIDDKRLAQVQKLLPVELAASKGIELVYVNTKGMSDPVQMLRALTGDAGFDDIFVYAAVPAVVEMADELLAEDGCLNFFAGPTDKNFKVPFNFYNVHYNSTHVVGTSGGSTDDMKEAIALSATGQLQPSFMVTHIGGLDAVPETVLNLPDIPGGKKLIYNGVTMPLTAIADFAEKGKTDPLFKELARLVEETHGIWNEQAEKYLLAQFGVDIGEAAQ
MGSDKIHHHHHHMKTRQEALDYGLSFPNTYQEAPFHDPNWQLIRVKDSKKVFLWTYERNGFINLNVKVSPAWRDFWRDAFPSVIPGWHQNKDNWNTIILDGSIPDDAIKNMISDSYDLVTYNPTRLIYEAVKRIPKGCVATYAQVAELAGNKKMCRAVGNALHKNPNPDEIPCYRVVNAKGELSGAFAFGGADEQANRLRADGIEVIDGRVDLDKYGIRIVDDVIYTKTTVEPLT
MGSDKIHHHHHHMKTSPRSNRLHIALFGKRNSGKSSLINALTNQNAALVSDIAGTTTDPVYQPMEIHGIGPCVFIDTAGFDDEGELGSLRIERTLQAADKADIALMVCCDTELSEEQRWIELLKERNIPYLLVLNKADLLEKPDEVADKLEQQTGQHPLIVSAKEKTGIDSIRQSILHRLPELNEQPDIVGDLANEGDVVLLVMPQDIQAPKGRLILPQVQTLRELLDKKCITLSCTTDQLDNALKALSVPPSLIITDSQVFRTVYEKKPPQSRLTSFSVLFARYKGDIDYYTEGAYIIDQLTENSRVLIAEACTHAPLSEDIGRVKLPRMLRKRIGEKLHIDIVSGNDFPKDLNCYDLIIHCGACMFNRKHVLNRIVKAKAQGVPMTNYGIVIAYINGIPFH
MGSDKIHHHHHHMKTTFNLSRFYKACNPSYTLNISNVLDRQYYIDFADVRGCKIVEELQRTIVRISPDEPTCQLFTGHIGCGKSTELQRLKTELELAGFHVVYFESSQDLDMADIDISDILLSVARQVSASLEGINIKLKGGYFTNLFKEVGDFLQSPIELSGQAELSLGIAKITAKTKDSTQMRNQLRQYLEPRTNSILQAINEEILERAVEQLKLRGQKGLVVIVDNLDRVDMRPLASGRSQPEYLFIDRGEQLRRLKCHLVYTIPLTLIFSNEYETLKNRLGGGIAPKVLPMVLVRQRDGSDYEPGMSLVRQLVLARAFPEVSLNERLLLITELFDHSQTLDRICRVSGGHIRNLLGLLYSCLQRQDPPFSRECLEAVIKDYRDDLLLAIDESQWELLFEVVQQQRVKGESDYQSLLRSMYLFEYRDPLGRWFGISPALAETEKVLAWQQKK
